From patent US20250129145A1 (Ablynx, published 2025) come the findings set out here.

Assay [1] deals with T1, human serum albumin (human, UniProt P02768 25-609).
T1 construct: Bought protein; also called HSA
The experiment in a line: SPR Biacore 8K+, HSA immobilized (C1 chip), pH 7.4, bivalent analyte fit. As for the experimental part: (§1) The affinities of the purified multivalent albumin binding constructs for HSA at pH 7.4 was determined on a Biacore 8K+ instrument. HSA (Sigma-Aldrich—Sigma, Cat No. A8763) was immobilized on a Series S Sensor Chip C1. The multivalent albumin binding proteins as described in Table 12 above were injected at 9 different concentrations (between 1.6 and 2500 nM) and allowed to associate for 120 s at 30 μL/min and dissociate for 600 s.
On the technique in general: In SPR one partner is held on a chip, and binding of the other changes the refractive index at the surface.

For assay [2], the target named is T1, human serum albumin. Briefly: SPR Biacore 8K+, HSA immobilized (C1 chip), pH 7.4, bivalent analyte fit (KD1). As to the method:
as §1

The target of assay [3] is T1, human serum albumin. Briefly: SPR, pH 7.4, immobilized HSA density ~3000 RU. As for the experimental part: (§2) The purified multivalent albumin binding constructs were also tested in SPR on different densities of HSA (100 RU until 6700 RU) to detect avidity.
Assay [4] concerns the target T1, human serum albumin. Briefly: SPR, pH 7.4, immobilized HSA density ~100 RU. As for the experimental part: as §2
The target in assay [5] is T1, human serum albumin. The experiment in a line: SPR Biacore 8K+, HSA immobilized (C1 chip), pH 7.4, bivalent analyte fit (kd1). As for the experimental part:
as §1

Assay [6] deals with T1, human serum albumin. Briefly: SPR Biacore 8K+, HSA immobilized (C1 chip), pH 7.4, bivalent analyte fit (ka1). As to the method: as §1
The target in assay [7] is T1, human serum albumin. The experiment in a line: SPR, pH 7.4, immobilized HSA density ~500 RU. As for the experimental part: as §2
The target in assay [8] is T1, human serum albumin. The experiment in a line: SPR, pH 7.4, immobilized HSA density ~6700 RU. As to the method: as §2

B1: TPP-66100 (VHH)
chain: EVQLVESGGGVVQPGGSLRLSCAASGLTFSSYAMGWFRQAPGKERERVVSISRGGGYTYYADSVKGRFTISRDNSKNTVYLQMNSLRPEDTALYYCAAARYWATGSEYEFDYWGQGTLVTVSSGGGGSGGGGSGGGGSGGGGSGGGGSGGGGSGGGGSEVQLVESGGGVVQPGDSLRLSCAASGGTFSTYVMGWFRQAPGKEREFVSAISQNSIHTYYANSVKGRFTISRDNSKNTVYLQLNSLRPEDTALYYCAASRFTSWYTADYEYDYWGQGTLVTVSSGGGGSGGGGSGGGGSGGGGSGGGGSGGGGSGGGGSEVQLVESGGGVVQPGGSLRLSCAASGFTFRSFGMSWVRQAPGKGPEWVSSISGSGSDTLYADSVKGRFTISRDNSKNTLYLQMNSLRPEDTALYYCTIGGSLSRSSQGTLVTVSSA
notes: also called ALBX00002-35GS-T023500029-35GS-ALB23002-A
A word on the koff: it is the rate constant with which the complex falls apart. Read a low koff as slow dissociation. A word on the kon: it is a measure of how fast the partners come together. Low readings indicate slow association, high ones fast association. In the case of B1, in assay [1], the “ka2 (bivalent analyte fit)” value was 0.0074 M⁻¹ s⁻¹. Moreover, the “kd2 (bivalent analyte fit)” value in assay [1] was determined as 0.026 s⁻¹. In addition, the Kd in assay [2] amounted to 1.7 nM. The koff in assay [3] amounted to 0.00036 s⁻¹; in assay [4] it was 0.00027 s⁻¹; in assay [5], 0.00034 s⁻¹; in assay [7] it was 0.00032 s⁻¹; in assay [8], 0.00032 s⁻¹. Also, the kon in assay [6] came out at 200000 M⁻¹ s⁻¹.

B2: TPP-66099 (VHH)
chain: EVQLVESGGGVVQPGGSLRLSCAASGFTFRSFGMSWVRQAPGKGPEWVSSISGSGSDTLYADSVKGRFTISRDNSKNTLYLQMNSLRPEDTALYYCTIGGSLSRSSQGTLVTVSSGGGGSGGGGSGGGGSGGGGSGGGGSGGGGSGGGGSEVQLVESGGGVVQPGGSLRLSCAASGFTFRSFGMSWVRQAPGKGPEWVSSISGSGSDTLYADSVKGRFTISRDNSKNTLYLQMNSLRPEDTALYYCTIGGSLSRSSQGTLVTVSSGGGGSGGGGSGGGGSGGGGSGGGGSGGGGSGGGGSEVQLVESGGGVVQPGGSLRLSCAASGFTFRSFGMSWVRQAPGKGPEWVSSISGSGSDTLYADSVKGRFTISRDNSKNTLYLQMNSLRPEDTALYYCTIGGSLSRSSQGTLVTVSSA
notes: also called ALB23002-35GS-ALB23002-35GS-ALB23002-A
On to B2, for which, in assay [1], the “ka2 (bivalent analyte fit)” value is 0.0022 M⁻¹ s⁻¹. Besides, the “kd2 (bivalent analyte fit)” value in assay [1] was determined as 0.0038 s⁻¹. In assay [2], this molecule came in with a Kd of 1.4 nM. In addition, the koff in assay [3] is 7.2e-05 s⁻¹; in assay [4], 0.00041 s⁻¹; in assay [5], 0.0005 s⁻¹; in assay [7], 0.00018 s⁻¹; in assay [8], 3.6e-05 s⁻¹. Further, the kon in assay [6] amounted to 370000 M⁻¹ s⁻¹.

B3: TPP-66102 (VHH)
chain: EVQLVESGGGVVQPGGSLRLSCAASGFTFRSFGMSWVRQAPGKGPEWVSSISGSGSDTLYADSVKGRFTISRDNSKNTLYLQMNSLRPEDTALYYCTIGGSLSRSSQGTLVTVSSGGGGSGGGGSGGGGSGGGGSGGGGSGGGGSGGGGSEVQLVESGGGVVQPGGSLRLSCAASGFTFRSFGMSWVRQAPGKGPEWVSSISGSGSDTLYADSVKGRFTISRDNSKNTLYLQMNSLRPEDTALYYCTIGGSLSRSSQGTLVTVSSGGGGSGGGGSGGGGSGGGGSGGGGSGGGGSGGGGSEVQLVESGGGVVQPGGSLRLSCAASGFTFRSFGMSWVRQAPGKGPEWVSSISGSGSDTLYADSVKGRFTISRDNSKNTLYLQMNSLRPEDTALYYCTIGGSLSRSSQGTLVTVSSGGGGSGGGGSGGGGSGGGGSGGGGSGGGGSGGGGSEVQLVESGGGVVQPGGSLRLSCAASGFTFRSFGMSWVRQAPGKGPEWVSSISGSGSDTLYADSVKGRFTISRDNSKNTLYLQMNSLRPEDTALYYCTIGGSLSRSSQGTLVTVSSA
notes: also called ALB23002-35GS-ALB23002-35GS-ALB23002-35GS-ALB23002-A
In the case of B3, the “ka2 (bivalent analyte fit)” value in assay [1] is 0.005 M⁻¹ s⁻¹. Further, in assay [1], the “kd2 (bivalent analyte fit)” value amounted to 0.0066 s⁻¹. Besides, in assay [2], the Kd was found to be 2 nM. For the same molecule, the koff in assay [3] is 3.6e-05 s⁻¹; in assay [4] it was 0.00043 s⁻¹; in assay [5], 0.00055 s⁻¹; in assay [7], 0.00012 s⁻¹; in assay [8] it was 1.4e-05 s⁻¹. The kon in assay [6] was found to be 280000 M⁻¹ s⁻¹.

B4: IRR00164 (VHH)
VHH: EVQLVESGGGVVQPGGSLRLSCAASGFTFRSFGMSWVRQAPGKGPEWVSSISGSGSDTLYADSVKGRFTISRDNSKNTLYLQMNSLRPEDTALYYCTIGGSLSRSSQGTLVTVSS
notes: also called CNB-9GS-CNB-9GS-CNB-9GS-ALB23002-A; CNB-CNB-CNB-Alb223
As for B4, the results for the koff in assay [3], in assay [7] and in assay [8] were 0.0016 s⁻¹, 0.002 s⁻¹ and 0.0012 s⁻¹, respectively.

B5: TPP-66095 (other)
chain: DLGKKLLEAARAGQDDEVRELLKAGADVNAKDYFSHTPLHLAARNGHLKIVEVLLKAGADVNAKDFAGKTPLHLAANEGHLEIVEVLLKAGADVNAQDIFGKTPADIAADAGHEDIAEVLQKAAGGGGSGGGGSGGGGSGGGGSGGGGSGGGGSGGGGSEVQLVESGGGVVQPGGSLRLSCAASGFTFRSFGMSWVRQAPGKGPEWVSSISGSGSDTLYADSVKGRFTISRDNSKNTLYLQMNSLRPEDTALYYCTIGGSLSRSSQGTLVTVSSA
notes: also called DARPIN-35GS-ALB23002-A; DARPIN-35GS-Alb223
In the case of B5, the koff in assay [3] is 0.00016 s⁻¹; in assay [4] it was 0.00021 s⁻¹; in assay [7], 0.00038 s⁻¹; in assay [8] it was 8.3e-05 s⁻¹.

B6: TPP-66094 (VHH)
chain: EVQLVESGGGVVQPGDSLRLSCAASGGTFSTYVMGWFRQAPGKEREFVSAISQNSIHTYYANSVKGRFTISRDNSKNTVYLQLNSLRPEDTALYYCAASRFTSWYTADYEYDYWGQGTLVTVSSGGGGSGGGGSGGGGSGGGGSGGGGSGGGGSGGGGSEVQLVESGGGVVQPGGSLRLSCAASGFTFRSFGMSWVRQAPGKGPEWVSSISGSGSDTLYADSVKGRFTISRDNSKNTLYLQMNSLRPEDTALYYCTIGGSLSRSSQGTLVTVSSA
notes: also called T023500029-35GS-ALB23002-A; T023500029-35GS-Alb223
Take B6: in assay [1], the “ka2 (bivalent analyte fit)” value amounted to 0.00027 M⁻¹ s⁻¹. The “kd2 (bivalent analyte fit)” value in assay [1] worked out at 0.0022 s⁻¹. In assay [2], this molecule came in with a Kd of 0.49 nM. Moreover, the koff in assay [3] was 7.6e-05 s⁻¹; in assay [4], 0.00012 s⁻¹; in assay [5], 0.00013 s⁻¹; in assay [7], 9.3e-05 s⁻¹; in assay [8], 5.6e-05 s⁻¹. The same molecule came in with a kon in assay [6] of 270000 M⁻¹ s⁻¹.

B7: TPP-66101 (other)
chain: DLGKKLLEAARAGQDDEVRELLKAGADVNAKDYFSHTPLHLAARNGHLKIVEVLLKAGADVNAKDFAGKTPLHLAANEGHLEIVEVLLKAGADVNAQDIFGKTPADIAADAGHEDIAEVLQKAAGGGGSGGGGSGGGGSGGGGSGGGGSGGGGSGGGGSEVQLVESGGGVVQPGGSLRLSCAASGFTFRSFGMSWVRQAPGKGPEWVSSISGSGSDTLYADSVKGRFTISRDNSKNTLYLQMNSLRPEDTALYYCTIGGSLSRSSQGTLVTVSSGGGGSGGGGSGGGGSGGGGSGGGGSGGGGSGGGGSEVQLVESGGGVVQPGGSLRLSCAASGFTFRSFGMSWVRQAPGKGPEWVSSISGSGSDTLYADSVKGRFTISRDNSKNTLYLQMNSLRPEDTALYYCTIGGSLSRSSQGTLVTVSSA
notes: also called DARPIN-35GS-ALB23002-35GS-ALB23002-A
Consider B7, for which the “ka2 (bivalent analyte fit)” value in assay [1] amounted to 95 M⁻¹ s⁻¹. In addition, in assay [1], the “kd2 (bivalent analyte fit)” value was determined as 65 s⁻¹. The Kd in assay [2] was determined as 5 nM. In addition, the koff in assay [3] amounted to 0.0001 s⁻¹; in assay [4], 0.00076 s⁻¹; in assay [5], 0.0015 s⁻¹; in assay [7], 0.00023 s⁻¹; in assay [8], 4e-05 s⁻¹. For the same molecule, in assay [6], the kon was found to be 300000 M⁻¹ s⁻¹.

B8: TPP-66097 (other)
chain: LKEAKEKAIEELKKAGITSDYYFDLINKAKTVEGVNALKDEILKAGGGGSGGGGSGGGGSGGGGSGGGGSGGGGSGGGGSEVQLVESGGGVVQPGGSLRLSCAASGFTFRSFGMSWVRQAPGKGPEWVSSISGSGSDTLYADSVKGRFTISRDNSKNTLYLQMNSLRPEDTALYYCTIGGSLSRSSQGTLVTVSSA
notes: also called ABD-35GS-ALB23002-A; ABD-35GS-Alb223
For B8, the “ka2 (bivalent analyte fit)” value in assay [1] worked out at 0.0023 M⁻¹ s⁻¹. In assay [1], the “kd2 (bivalent analyte fit)” value came out at 0.0088 s⁻¹. In addition, in assay [2], the Kd is 0.082 nM. Besides, the koff in assay [3] was determined as 8.4e-05 s⁻¹; in assay [4] it was 7.4e-05 s⁻¹; in assay [5], 1.5e-05 s⁻¹; in assay [7], 0.00012 s⁻¹; in assay [8], 6e-05 s⁻¹. This molecule yielded a kon in assay [6] of 180000 M⁻¹ s⁻¹.

B9: TPP-66093 (VHH)
chain: EVQLVESGGGVVQPGGSLRLSCAASGLTFSSYAMGWFRQAPGKERERVVSISRGGGYTYYADSVKGRFTISRDNSKNTVYLQMNSLRPEDTALYYCAAARYWATGSEYEFDYWGQGTLVTVSSGGGGSGGGGSGGGGSGGGGSGGGGSGGGGSGGGGSEVQLVESGGGVVQPGGSLRLSCAASGFTFRSFGMSWVRQAPGKGPEWVSSISGSGSDTLYADSVKGRFTISRDNSKNTLYLQMNSLRPEDTALYYCTIGGSLSRSSQGTLVTVSSA
notes: also called ALBX00002-35GS-ALB23002-A; ALBX00002-35GS-Alb223
Take B9: in assay [1], the “ka2 (bivalent analyte fit)” value stood at 0.00012 M⁻¹ s⁻¹. Further, in assay [1], the “kd2 (bivalent analyte fit)” value turned out to be 0.00084 s⁻¹. The Kd in assay [2] was found to be 0.66 nM. Further, the koff in assay [3] worked out at 6.6e-05 s⁻¹; in assay [4], 0.00011 s⁻¹; in assay [5], 0.00012 s⁻¹; in assay [7] it was 8.6e-05 s⁻¹; in assay [8] it was 5.2e-05 s⁻¹. The kon in assay [6] came to 180000 M⁻¹ s⁻¹.
